Assays:
GST-Obsc_(6316–6345) = GST-Obsc_(6316–6345) (rat); experiment: SPR
GST-Obsc_(6231–6260) = molecular target: T1, GST-Obsc_(6231–6260) (rat); experiment: SPR
T1 chain: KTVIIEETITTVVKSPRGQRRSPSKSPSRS

Kd (GST-Obsc_(6316–6345)): 0.133 µM | koff (GST-Obsc_(6316–6345)): 0.000792 s⁻¹ | kon (GST-Obsc_(6316–6345)): 6290 M⁻¹ s⁻¹ | Kd (GST-Obsc_(6231–6260)): 0.384 ± 0.053 µM
B1: MBP-sAnk1_(29–155) (domain or fragment)
chain: VKGSLCFVLKHIHQELDKELGESEGLSDDEETISTRVVRRRVFLKGDELQNIPGEQVTEEQFTDEQGNIVTKKIIRKVVRQVDSSGAIDTQQHEEVELRGSGLQPDLIEGRKGAQIVKRASLKRGKQ

— PMC3000613 (Biochemistry, 2010)
